{
  "source": "patent US20100143440A1",
  "about": "“UL97 INHIBITORS FOR TREATMENT OF PROLIFERATIVE DISORDERS” (The UAB Research Foundation, priority 2007, published 2010)",
  "molecules": {"B1": {"name": "recombinant protein consisting of the carboxyl terminus of Rb fused to the maltose binding protein (Cell Signaling Technology) (other)", "chain": "DQIMMCSMYGICKVKNIDLKFKIIVTAYKDLPHAVQETFKRVLIKEEEYDSIIVFYNSVFMQRLKTNILQYASTRPPTLSPIPHIPRSPYKFPSSPLRIPGGNIYISPLKSPYKISEGLPTPTKMTPRSRILVSIGESFGTSEKFQKINQMVCNSDRVLKRSAEGSNPPKPLKKLRFDIEGSDEADGSKHLPGESKFQQKLAEMTSTRTRMQKQKMNDSMDTSNKEEK", "notes": "domain: carboxyl terminus; Bought fusion protein; also called recombinant Rb; recombinant Rb protein"}, "B2": {"name": "pUL97 of the wild-type virus HB5 (HCMV BAC strain) (protein)", "chain": "MSSALRSRARSASLGTTTQGWDPPPLRRPSRARRRQWMREAAQAAAQAAVQAAQAAAAQVAQAHVDENEVVDLMADEAGGGVTTLTTLSSVSTTTVLGHATFSACVRSDVMRDGEKEDAASDKENLRRPVVPSTSSRGSAASGDGYHGLRCRETSAMWSFEYDRDGDVTSVRRALFTGGSDPSDSVSGVRGGRKRPLRPPLVSLARTPLCRRRVGGVDAVLEENDVELRAESQDSAVASGPGRIPQPLSGSSGEESATAVEADSTSHDDVHCTCSNDQIITTSIRGLTCDPRMFLRLTHPELCELSISYLLVYVPKEDDFCHKICYAVDMSDESYRLGQGSFGEVWPLDRYRVVKVARKHSETVLTVWMSGLIRTRAAGEQQQPPSLVGTGVHRGLLTATGCCLLHNVTVHRRFHTDMFHHDQWKLACIDSYRRAFCTLADAIKFLNHQCRVCHFDITPMNVLIDVNPHNPSEIVRAALCDYSLSEPYPDYNERCVAVFQETGTARRIPNCSHRLRECYHPAFRPMPLQKLLICDPHARFPVAGLRRYCMSELSALGNVLGFCLMRLLDRRGLDEVRMGTEALLFKHAGAACRALENGKLTHCSDACLLILAAQMSYGACLLGEHGAALVSHTLRFVEAKMSSCRVRAFRRFYHECSQTMLHEYVRKNVERLLATSDGLYLYNAFRRTTSIICEEDLDGDCRQLFPE"}, "B3": {"name": "pUL97 C151G of recombinant virus RC295 (protein)", "chain": "B2 chain with C151G"}},
  "key": {"GS strain of HHV-6A": {"system": "GS strain of HHV-6A", "assay": "Efficacy against HHV-6A in HSB-2 cells with reduced serum", "assay_type": "cell-based", "settings": "for EC50: HSB2, HHV-6A in HSB-2 cells, read-out: EC50", "experimental": "The activity of MBV was evaluated against the GS strain of HHV-6A in HSB-2 cells with reduced serum to slow the growth of lymphocytes."}, "[1]": {"target": "RB tumor suppressor (retinoblastoma protein), endogenous in infected human foreskin fibroblast (HFF) cells (UniProt P06400)"}, "[2]": {"target": "T1, epitope tagged (V5) UL89 fusion protein (negative control) (UniProt P16732 1-674)", "T1 construct": "Negative control in the Rb pull-down; also called pUL89", "T1 sequence": "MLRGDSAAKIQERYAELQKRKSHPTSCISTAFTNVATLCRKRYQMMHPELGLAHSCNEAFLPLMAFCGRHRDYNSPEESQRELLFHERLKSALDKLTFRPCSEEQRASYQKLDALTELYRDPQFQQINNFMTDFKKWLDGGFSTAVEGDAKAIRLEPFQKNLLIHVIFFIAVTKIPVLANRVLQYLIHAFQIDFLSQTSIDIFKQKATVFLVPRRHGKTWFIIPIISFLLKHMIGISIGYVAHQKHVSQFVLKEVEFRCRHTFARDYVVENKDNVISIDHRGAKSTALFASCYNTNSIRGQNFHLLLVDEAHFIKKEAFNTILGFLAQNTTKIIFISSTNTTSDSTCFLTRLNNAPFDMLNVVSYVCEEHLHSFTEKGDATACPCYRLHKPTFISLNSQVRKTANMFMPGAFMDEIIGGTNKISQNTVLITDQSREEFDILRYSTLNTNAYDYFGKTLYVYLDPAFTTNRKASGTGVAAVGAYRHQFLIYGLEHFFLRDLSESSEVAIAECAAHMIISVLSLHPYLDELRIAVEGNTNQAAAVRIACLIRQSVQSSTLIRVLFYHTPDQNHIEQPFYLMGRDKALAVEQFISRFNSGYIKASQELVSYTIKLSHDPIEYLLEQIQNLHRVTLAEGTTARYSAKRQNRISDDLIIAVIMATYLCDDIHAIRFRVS", "assay": "pull-down of recombinant Rb by V5-immunoprecipitated protein on Protein A sepharose beads, immunoblot for Rb"}, "[3]": {"target": "T2, epitope tagged (V5) UL104 fusion protein (negative control) (UniProt P16735 1-697)", "T2 construct": "Negative control in the Rb pull-down; also called pUL104", "T2 sequence": "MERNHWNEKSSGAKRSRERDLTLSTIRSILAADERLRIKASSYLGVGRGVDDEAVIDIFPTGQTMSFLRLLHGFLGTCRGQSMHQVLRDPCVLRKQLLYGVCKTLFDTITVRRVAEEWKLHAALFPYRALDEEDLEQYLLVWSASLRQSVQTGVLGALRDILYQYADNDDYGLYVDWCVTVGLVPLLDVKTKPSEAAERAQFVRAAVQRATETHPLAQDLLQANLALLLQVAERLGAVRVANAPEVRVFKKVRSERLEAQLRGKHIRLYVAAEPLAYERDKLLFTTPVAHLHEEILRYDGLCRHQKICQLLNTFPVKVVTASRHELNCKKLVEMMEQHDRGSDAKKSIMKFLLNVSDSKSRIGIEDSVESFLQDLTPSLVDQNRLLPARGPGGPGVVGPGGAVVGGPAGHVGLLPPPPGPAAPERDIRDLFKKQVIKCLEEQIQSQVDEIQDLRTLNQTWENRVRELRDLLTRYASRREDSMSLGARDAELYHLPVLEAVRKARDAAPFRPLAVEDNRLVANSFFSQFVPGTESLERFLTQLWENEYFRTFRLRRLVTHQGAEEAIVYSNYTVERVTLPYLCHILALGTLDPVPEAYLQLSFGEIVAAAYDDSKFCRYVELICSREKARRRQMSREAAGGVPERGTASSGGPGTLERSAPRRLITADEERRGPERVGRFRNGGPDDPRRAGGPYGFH", "assay": "pull-down of recombinant Rb by V5-immunoprecipitated protein on Protein A sepharose beads, immunoblot for Rb"}, "[4]": {"target": "T3, RB tumor suppressor (retinoblastoma protein), endogenous in infected human foreskin fibroblast (HFF) cells, P06400", "T3 chain": "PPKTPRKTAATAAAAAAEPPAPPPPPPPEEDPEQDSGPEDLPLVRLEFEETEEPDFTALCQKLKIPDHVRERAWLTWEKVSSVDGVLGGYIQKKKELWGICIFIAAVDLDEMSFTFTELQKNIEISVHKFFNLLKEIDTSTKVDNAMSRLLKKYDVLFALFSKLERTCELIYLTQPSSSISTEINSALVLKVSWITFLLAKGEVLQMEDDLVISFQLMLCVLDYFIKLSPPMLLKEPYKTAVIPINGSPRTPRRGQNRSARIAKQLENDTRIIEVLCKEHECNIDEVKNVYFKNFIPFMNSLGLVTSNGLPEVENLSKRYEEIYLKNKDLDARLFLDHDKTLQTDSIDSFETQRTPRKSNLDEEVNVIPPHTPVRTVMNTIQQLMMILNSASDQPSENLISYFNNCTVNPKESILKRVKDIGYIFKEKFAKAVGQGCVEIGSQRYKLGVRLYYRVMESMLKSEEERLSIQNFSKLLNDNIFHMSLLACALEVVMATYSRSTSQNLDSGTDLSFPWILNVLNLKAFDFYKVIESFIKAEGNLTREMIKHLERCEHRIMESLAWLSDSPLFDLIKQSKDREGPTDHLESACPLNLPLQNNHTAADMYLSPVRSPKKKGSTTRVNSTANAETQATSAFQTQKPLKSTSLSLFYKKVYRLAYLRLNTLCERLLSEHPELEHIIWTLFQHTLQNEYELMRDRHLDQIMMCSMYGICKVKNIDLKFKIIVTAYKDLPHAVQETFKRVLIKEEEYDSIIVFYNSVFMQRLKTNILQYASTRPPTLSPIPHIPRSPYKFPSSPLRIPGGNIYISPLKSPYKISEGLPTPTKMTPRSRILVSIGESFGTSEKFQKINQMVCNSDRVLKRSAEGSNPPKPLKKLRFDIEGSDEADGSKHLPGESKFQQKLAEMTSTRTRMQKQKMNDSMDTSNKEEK"}},
  "note": "Positions count from the first letter of the chain named. In names and notes the source's numbering stands. Like-named read-outs stand apart in the source and are kept apart here.",
  "data": [
    {"molecule": "Nc1ccn(C[C@@H](CO)OCP(=O)(O)O)c(=O)n1", "note": "[cidofovir]", "values": [
      {"measurement": "EC50 values under conditions of reduced serum", "setting": "GS strain of HHV-6A; GS strain of HHV-6A, HSB-2 cells, reduced serum", "result": "unaffected"},
      {"measurement": "EC50", "setting": "GS strain of HHV-6A; 2% FBS", "result": 1.1, "unit": "µM"},
      {"measurement": "EC50", "setting": "GS strain of HHV-6A; 5% FBS", "result": 1.2, "unit": "µM"},
      {"measurement": "EC50", "setting": "GS strain of HHV-6A; 10% FBS", "result": 1.4, "unit": "µM"}
    ]},
    {"molecule": "pUL97 K355M of recombinant virus RC314", "values": [
      {"measurement": "RB stabilization, western blot of lysates 24 hours after infection", "setting": "[1]", "result": "This did not occur when cells were infected with the K355M mutant"},
      {"measurement": "phosphorylation of RB on serine 780, western blot with specific antisera", "setting": "[1]", "result": "The phosphorylation of serine 780 was reduced in the K355M and C151G mutants relative to the wild-type virus and resembled levels seen in uninfected cells"}
    ]},
    {"molecule": "B1", "values": [
      {"measurement": "binding result", "setting": "[2]", "result": "no binding"},
      {"measurement": "binding result", "setting": "[3]", "result": "no binding"}
    ]},
    {"molecule": "B2", "values": [
      {"measurement": "RB stabilization, western blot of lysates 24 hours after infection", "setting": "[4]", "result": "Cells infected with the wild-type virus stabilized RB"}
    ]},
    {"molecule": "B3", "values": [
      {"measurement": "RB accumulation, western blot of lysates 24 hours after infection", "setting": "[4]", "result": "The accumulation of RB was reduced in the C151G mutant"},
      {"measurement": "phosphorylation of RB on serine 780, western blot with specific antisera", "setting": "[4]", "result": "The phosphorylation of serine 780 was reduced in the K355M and C151G mutants relative to the wild-type virus and resembled levels seen in uninfected cells"}
    ]}
  ]
}
